Source: patent US20250084178A1 (ARCUS BIOSCIENCES, published 2025)
Where two headings read alike, the source gives them in different places.

Key:
[1] = target: T1, cynomolgus monkey CD39 expressed on HEK-293 cells (cynomolgus monkey, UniProt P49961 5-510 (human entry)); test: FACS on HEK293 cells overexpressing cynomolgus CD39
T1 construct: also called Cynomolgus Monkey CD39-HEK293
T1 chain: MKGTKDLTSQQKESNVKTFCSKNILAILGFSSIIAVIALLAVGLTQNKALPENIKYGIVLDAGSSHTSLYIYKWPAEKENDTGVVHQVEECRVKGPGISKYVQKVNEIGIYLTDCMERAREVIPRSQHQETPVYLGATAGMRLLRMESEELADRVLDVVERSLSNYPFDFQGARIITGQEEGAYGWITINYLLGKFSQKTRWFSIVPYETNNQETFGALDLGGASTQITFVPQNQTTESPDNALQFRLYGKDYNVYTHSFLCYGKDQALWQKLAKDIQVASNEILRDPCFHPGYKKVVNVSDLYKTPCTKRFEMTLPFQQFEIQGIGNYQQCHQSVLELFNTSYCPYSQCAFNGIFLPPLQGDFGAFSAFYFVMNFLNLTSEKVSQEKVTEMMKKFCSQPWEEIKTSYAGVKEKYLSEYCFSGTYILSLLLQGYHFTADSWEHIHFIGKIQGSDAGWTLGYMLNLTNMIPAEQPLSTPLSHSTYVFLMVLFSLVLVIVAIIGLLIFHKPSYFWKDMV

[2] = target: T2, soluble His-tagged human CD39 ECD protein (human, UniProt P49961 38-478); test: SPR (Biacore 8K), antibody captured via anti-human Fc, CD39 ECD analyte
T2 construct: also called human CD39 ECD His-tagged antigen; Sino Biological Cat. No. 16020-H08B
T2 sequence: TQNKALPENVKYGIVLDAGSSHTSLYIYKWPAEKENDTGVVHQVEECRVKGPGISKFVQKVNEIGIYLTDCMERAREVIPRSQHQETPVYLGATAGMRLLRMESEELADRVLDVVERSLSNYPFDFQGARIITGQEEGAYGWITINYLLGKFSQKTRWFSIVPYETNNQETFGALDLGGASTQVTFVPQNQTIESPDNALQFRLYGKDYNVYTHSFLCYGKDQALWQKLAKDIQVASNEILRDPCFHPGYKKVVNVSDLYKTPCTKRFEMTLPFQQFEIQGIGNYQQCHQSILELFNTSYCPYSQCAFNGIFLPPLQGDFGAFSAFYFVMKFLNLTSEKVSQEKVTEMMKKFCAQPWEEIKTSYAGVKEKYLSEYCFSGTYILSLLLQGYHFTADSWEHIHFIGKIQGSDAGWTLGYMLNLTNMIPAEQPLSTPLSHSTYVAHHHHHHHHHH

[3] = target: T3, human CD39 expressed on the cell surface (human, UniProt P49961 1-510); test: cell-based or functional assay
T3 sequence: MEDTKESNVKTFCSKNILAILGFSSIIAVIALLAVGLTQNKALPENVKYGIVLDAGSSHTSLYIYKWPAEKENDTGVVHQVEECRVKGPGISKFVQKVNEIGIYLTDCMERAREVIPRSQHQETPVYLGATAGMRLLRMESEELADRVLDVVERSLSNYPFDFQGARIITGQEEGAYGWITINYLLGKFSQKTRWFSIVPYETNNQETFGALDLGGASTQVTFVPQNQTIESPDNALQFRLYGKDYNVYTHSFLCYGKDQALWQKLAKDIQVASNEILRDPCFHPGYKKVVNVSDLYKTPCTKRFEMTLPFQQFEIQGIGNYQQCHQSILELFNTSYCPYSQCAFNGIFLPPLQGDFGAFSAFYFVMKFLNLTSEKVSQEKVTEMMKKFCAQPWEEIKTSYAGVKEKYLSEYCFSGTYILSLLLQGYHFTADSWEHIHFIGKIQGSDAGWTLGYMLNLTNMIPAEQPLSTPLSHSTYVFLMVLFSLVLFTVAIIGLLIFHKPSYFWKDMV

[4] = target: T3, human CD39 expressed on the cell surface; test: FACS on CHO-K1 cells overexpressing human CD39
[5] = target: T3, human CD39 expressed on the cell surface; test: cell-based or functional assay; remark: listed apart in the source
[6] = target: T2, soluble His-tagged human CD39 ECD …; test: SPR (Biacore 8K), antibody captured via anti-human Fc, CD39 ECD analyte; remark: listed apart in the source
[7] = target: T3, human CD39 expressed on the cell surface; test: cell-based or functional assay; remark: listed apart in the source
[8] = target: T3, human CD39 expressed on the cell surface; test: cell-based or functional assay; remark: listed apart in the source
[9] = target: T3, human CD39 expressed on the cell surface; test: cell-based or functional assay; remark: listed apart in the source
[10] = target: T3, human CD39 expressed on the cell surface; test: flow cytometry on purified human CD14+ monocytes, 400 uM ATP
[11] = target: T3, human CD39 expressed on the cell surface; test: flow cytometry on purified human CD14+ monocytes, 0 uM ATP
[12] = target: T2, soluble His-tagged human CD39 ECD …; test: SPR (Biacore 8K), antibody captured via anti-human Fc, CD39 ECD analyte, 25 C
[13] = target: T4, recombinant human CD39 (soluble) (human, UniProt P49961 38-478, limits assumed); test: cell-based or functional assay
T4 sequence (looked up): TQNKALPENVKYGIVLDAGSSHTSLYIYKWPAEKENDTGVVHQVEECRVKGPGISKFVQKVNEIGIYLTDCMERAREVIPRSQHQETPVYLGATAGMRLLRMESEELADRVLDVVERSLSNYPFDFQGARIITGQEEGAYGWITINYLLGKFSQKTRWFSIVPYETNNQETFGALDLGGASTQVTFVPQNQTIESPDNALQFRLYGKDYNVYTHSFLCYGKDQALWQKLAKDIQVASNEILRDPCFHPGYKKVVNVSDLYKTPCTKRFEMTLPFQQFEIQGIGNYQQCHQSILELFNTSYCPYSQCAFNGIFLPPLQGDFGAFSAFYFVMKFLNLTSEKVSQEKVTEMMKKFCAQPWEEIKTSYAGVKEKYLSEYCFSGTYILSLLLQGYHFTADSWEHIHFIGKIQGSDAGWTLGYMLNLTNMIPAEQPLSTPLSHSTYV

[14] = target: T5, murine CD39 expressed on HEK-293 cells (murine, UniProt P55772 1-510); test: FACS on HEK-293 cells overexpressing murine CD39 (method of Example 1)
T5 construct: also called mouse CD39
T5 sequence: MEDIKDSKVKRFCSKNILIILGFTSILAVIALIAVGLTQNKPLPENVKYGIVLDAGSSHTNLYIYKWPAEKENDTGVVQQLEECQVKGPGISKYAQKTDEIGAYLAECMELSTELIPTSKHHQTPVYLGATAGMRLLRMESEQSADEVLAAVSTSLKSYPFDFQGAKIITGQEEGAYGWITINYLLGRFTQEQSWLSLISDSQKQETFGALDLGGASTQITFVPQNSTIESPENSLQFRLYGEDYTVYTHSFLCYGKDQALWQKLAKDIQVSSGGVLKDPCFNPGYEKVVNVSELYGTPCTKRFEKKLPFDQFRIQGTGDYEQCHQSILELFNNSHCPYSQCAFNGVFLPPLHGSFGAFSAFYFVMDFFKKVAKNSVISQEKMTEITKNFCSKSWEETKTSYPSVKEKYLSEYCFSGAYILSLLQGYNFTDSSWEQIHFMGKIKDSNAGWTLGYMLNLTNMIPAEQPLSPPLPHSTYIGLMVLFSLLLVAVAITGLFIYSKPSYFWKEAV

[15] = target: T3, human CD39 expressed on the cell surface; test: cell-based or functional assay; remark: listed apart in the source
[16] = target: T3, human CD39 expressed on the cell surface; test: FACS on CHO-K1 cells overexpressing human CD39; remark: listed apart in the source
[17] = target: T1, cynomolgus monkey CD39 expressed on …; test: FACS on HEK293 cells overexpressing cynomolgus CD39

B1: hu31.7_IGG4.P (antibody, human IgG4 S228P, kappa, V domains shown)
VH: EVQLVQSGAEVKKPGATVKISCKVSGDSITAYFMHWVQQAPGKGLEWMGRIDPDHERTKYAEKFKNRVTITADTSTNTVYMELSSLRSEDTAVYYCATERVPGFETDYWGQGVMVTVSS
VL: DIVMTQSPDLAVSLGERATINCRTQQTVDHYGTTYMNWYQQKPGQPPKLLIYLASSLASGVPDRFSGSGSGTDFTLTISSLQAEDVAVYYCQQSRNLWTFGGGTKVEIKR
notes: humanized variant of antibody 31 (VH2 + VL2), IgG4 (S228P)
[1]
  EC50: 1.01 nM
[2]
  Kd: 0.496 nM
  koff: 0.000615 s⁻¹
  kon: 1.24e+06 M⁻¹ s⁻¹
[3]
  Human THP-1 CD39 inhibition IC50: 0.25 nM
[4]
  EC50: 1.83 nM

B2: hu39.2_IGG4.P (antibody, human IgG4 S228P, kappa)
heavy: not shown
light: DIVLTQSPASLAVSPGQRATITCRASEGVKSYMHWYQQKPGQPPKLLIYKASNLASGVPARFSGSGSGTDFTLTINPVEADDTANYYCQQSWNDPTFGQGTKLEIKRTVAAPSVFIFPPSDEQLKSGTASVVCLLNNFYPREAKVQWKVDNALQSGNSQESVTEQDSKDSTYSLSSTLTLSKADYEKHKVYACEVTHQGLSSPVTKSFNRGEC
notes: humanized variant of antibody 39 (VH1 + VL1), IgG4 (S228P)
[5]
  IC50, CD39 enzymatic inhibition on human monocytes, 400 uM ATP: 0.14 nM
  Max Inhibition (%), human monocytes, 400 uM ATP: 80%
[6]
  Kd: 0.0936 nM

B3: hu39.4_IGG4.P (antibody, human IgG4 S228P, kappa)
heavy: not shown
light: B2 light
notes: humanized variant of antibody 39 (VH3 + VL1), IgG4 (S228P)
[7]
  IC50, CD39 enzymatic inhibition on SK-MEL-5 cells, 20 uM ATP: 0.13 nM
  Max Inhibition (%), SK-MEL-5 cells: 60%
[5]
  IC50, CD39 enzymatic inhibition on human monocytes, 400 uM ATP: 0.45 nM
  Max Inhibition (%), human monocytes, 400 uM ATP: 73%
[8]
  IC50, CD39 enzymatic inhibition on human monocytes, 20 uM ATP: 0.13 nM
  Max Inhibition (%), human monocytes, 20 uM ATP: 71%
[9]
  IC50, CD39 enzymatic inhibition on THP-1 cells, 20 uM ATP: 0.064 nM
  Max Inhibition (%), THP-1 cells: 76%
[10]
  EC50: 10 nM
[6]
  Kd: 0.185 nM

B4: hu31.4_IGG4.P (antibody, human IgG4 S228P, kappa)
heavy: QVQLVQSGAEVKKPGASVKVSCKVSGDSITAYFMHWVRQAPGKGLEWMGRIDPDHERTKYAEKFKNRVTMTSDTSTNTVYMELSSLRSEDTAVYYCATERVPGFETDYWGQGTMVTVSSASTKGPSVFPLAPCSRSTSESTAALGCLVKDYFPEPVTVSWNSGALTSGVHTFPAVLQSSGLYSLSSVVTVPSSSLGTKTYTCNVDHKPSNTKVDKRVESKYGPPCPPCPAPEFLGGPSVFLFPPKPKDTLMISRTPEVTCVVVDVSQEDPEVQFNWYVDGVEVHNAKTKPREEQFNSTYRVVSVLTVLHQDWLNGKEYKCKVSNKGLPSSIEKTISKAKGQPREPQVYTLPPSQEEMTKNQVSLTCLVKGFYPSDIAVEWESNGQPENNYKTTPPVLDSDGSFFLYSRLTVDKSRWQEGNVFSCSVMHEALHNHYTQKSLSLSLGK
light: DIVLTQSPALAVSPGQRATITCRTQQTVDHYGTTYMNWYQQKPGQPPKLLIYLASSLASGVPARFSGSGSGTDFTLTINPVEADDTANYYCQQSRNLWTFGGGTKVEIKRTVAAPSVFIFPPSDEQLKSGTASVVCLLNNFYPREAKVQWKVDNALQSGNSQESVTEQDSKDSTYSLSSTLTLSKADYEKHKVYACEVTHQGLSSPVTKSFNRGEC
notes: humanized variant of antibody 31 (VH1 + VL1), IgG4 (S228P)
[7]
  IC50, CD39 enzymatic inhibition on SK-MEL-5 cells, 20 uM ATP: 1.1 nM
  Max Inhibition (%), SK-MEL-5 cells: 71%
[8]
  IC50, CD39 enzymatic inhibition on human monocytes, 20 uM ATP: 0.59 nM
  Max Inhibition (%), human monocytes, 20 uM ATP: 74%
[9]
  IC50, CD39 enzymatic inhibition on THP-1 cells, 20 uM ATP: 0.095 nM
  Max Inhibition (%), THP-1 cells: 73%
[1]
  EC50: 0.78 nM
[2]
  Kd: 0.176 nM
[10]
  EC50: 26 nM
[3]
  Human THP-1 CD39 inhibition IC50: 0.26 nM
[4]
  EC50: 1.7 nM
[11]
  EC50: 16 nM

B5: hu31.6_IGG4.P (antibody, human IgG4 S228P, kappa, V domains shown)
VH: B1 VH
VL: DIVLTQSPALAVSPGQRATITCRTQQTVDHYGTTYMNWYQQKPGQPPKLLIYLASSLASGVPARFSGSGSGTDFTLTINPVEADDTANYYCQQSRNLWTFGGGTKVEIKR
notes: humanized variant of antibody 31 (VH2 + VL1), IgG4 (S228P)
[1]
  EC50: 0.81 nM
[2]
  Kd: 0.613 nM
  koff: 0.000684 s⁻¹
  kon: 1.12e+06 M⁻¹ s⁻¹
[3]
  Human THP-1 CD39 inhibition IC50: 0.3 nM
[4]
  EC50: 1.69 nM

B6: ch19_IGG4.P (antibody, human IgG4 S228P, kappa, V domains shown)
VH: QVQLKETGPGLVQPTQTLSITCTVSGFSLTSYFTQWVRQTPGKGLEWMGFIRSGGSTQYNSAFKSRLSISRDTSKNQVFLKMNSLKTEDTGVYYCARDRPDYHDGTYGVLDVWGQGASVTVSS
VL: DIRMTQSPASLSASLGETVNIECLASEDIDSDLAWYQKKPGKSPQLLIYNGNALQNGVPSRFSGSGSGTHFSLKINSLQSEDVATYFCQQYINYPYTFGGGTKLELRR
notes: rat/human chimera of antibody 19, human IgG4 (S228P), kappa
[7]
  IC50, CD39 enzymatic inhibition on SK-MEL-5 cells, 20 uM ATP: 5.4 nM
  Max Inhibition (%), SK-MEL-5 cells: 55%
[12]
  Kd: 0.443 nM
  koff: 0.0004 s⁻¹
  kon: 902000 M⁻¹ s⁻¹
[9]
  IC50, CD39 enzymatic inhibition on THP-1 cells, 20 uM ATP: 0.75 nM
  Max Inhibition (%), THP-1 cells: 75%
[13]
  IC50, inhibition of recombinant CD39 enzymatic activity, 20 uM ATP: 1.8 nM
  Max Inhibition (%), recombinant CD39, 20 uM ATP: 100%
[14]
  binding result: no binding
[15]
  Human THP-1 CD39 inhibition IC50: 0.44 nM
[10]
  EC50: 49 nM
[16]
  EC50: 9.04 nM
[17]
  EC50: 4.3 nM
[11]
  EC50: 61 nM
